According to PMC6910952 (Nature Communications, 2019):
Positions count from the first letter of the chain named. No end group written: not given here.

Key:
Assay in all cases: fluorescence polarisation; fluorescence anisotropy; 1 nM FlAsH-labeled His6-SUMO-yUfd1 peptide, His6-yNpl4^113–580 in two-fold dilution series; 25 °C; 50 mM Tris-HCl pH 8.0, 100 mM NaCl, 5 mM β-mercaptoethanol, 0.1 g/L BSA
Details in all cases: both partners purified
His6-yNpl4^113–580 L296A = target: T1, His6-yNpl4^113–580 L296A (Saccharomyces cerevisiae, UniProt P33755 113-580, L296A)
T1 construct: also called yNpl4 L296A; source: E. coli Rosetta (DE3), purified (Ni-NTA, Resource Q); not shown: His6, N-terminal, kept
T1 sequence (looked up): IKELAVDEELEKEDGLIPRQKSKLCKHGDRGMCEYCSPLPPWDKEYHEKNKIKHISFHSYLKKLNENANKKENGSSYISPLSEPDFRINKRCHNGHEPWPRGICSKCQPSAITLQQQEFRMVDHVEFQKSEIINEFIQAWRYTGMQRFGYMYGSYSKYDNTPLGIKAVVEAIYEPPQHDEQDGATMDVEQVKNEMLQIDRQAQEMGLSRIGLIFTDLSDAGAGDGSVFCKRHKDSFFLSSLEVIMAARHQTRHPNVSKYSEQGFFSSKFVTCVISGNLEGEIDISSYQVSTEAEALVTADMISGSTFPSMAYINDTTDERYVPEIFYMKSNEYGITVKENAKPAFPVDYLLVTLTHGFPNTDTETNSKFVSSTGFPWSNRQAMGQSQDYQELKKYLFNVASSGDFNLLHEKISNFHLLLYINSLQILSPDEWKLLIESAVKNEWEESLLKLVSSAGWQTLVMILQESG

His6-yNpl4^113–580 Y424A = target: T2, His6-yNpl4^113–580 Y424A (Saccharomyces cerevisiae, UniProt P33755 113-580, Y424A)
T2 construct: also called yNpl4 Y424A; source: E. coli Rosetta (DE3), purified (Ni-NTA, Resource Q); not shown: His6, N-terminal, kept
T2 sequence (looked up): T1 sequence (looked up) with A184L, Y312A

His6-yNpl4^113–580 R364A = target: T3, His6-yNpl4^113–580 R364A (Saccharomyces cerevisiae, UniProt P33755 113-580, R364A)
T3 construct: also called yNpl4 R364A; source: E. coli Rosetta (DE3), purified (Ni-NTA, Resource Q); not shown: His6, N-terminal, kept
T3 sequence (looked up): T1 sequence (looked up) with A184L, R252A

His6-yNpl4^113–580 F419A = target: T4, His6-yNpl4^113–580 F419A (Saccharomyces cerevisiae, UniProt P33755 113-580, F419A)
T4 construct: also called yNpl4 F419A; source: E. coli Rosetta (DE3), purified (Ni-NTA, Resource Q); not shown: His6, N-terminal, kept
T4 sequence (looked up): T1 sequence (looked up) with A184L, F307A

Kd (His6-yNpl4^113–580 L296A): 7.02 µM | Kd (His6-yNpl4^113–580 Y424A): 8.45 µM | Kd (His6-yNpl4^113–580 R364A): 0.314 µM | Kd (His6-yNpl4^113–580 F419A): 0.158 µM
B1: FlAsH-labeled His6-SUMO-yUfd1^288–305-GWCCPGCC (peptide, UniProt P53044 288-305, looked up)
chain: {His6-SUMO}-EPAKLDLPEGQLFFGFPMGWCCPGCC
modifications: cysteine pairing not given here; also: FlAsH label bound to CCPGCC motif
notes: the assay methods print 280-305; also called yUfd1-FlAsH; yUfd1 WT; source: E. coli Rosetta (DE3) (pCold-SUMO), purified (Ni-NTA, Resource Q), labeled with FlAsH-EDT2; not shown: His6, N-terminal, kept; SUMO, N-terminal, kept
